According to the nanobody polyreactivity screen of Harvey et al. (2022):

Test: yeast display, Sf9 membrane polyspecificity reagent, FACS + sequencing; frameworks hold sequencing errors
In short: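 Nanobodies from a synthetic yeast display library (Saccharomyces cerevisiae BJ5465), induced 36–48 hours with galactose, were stained 1 hour at 4 °C with 10% biotinylated, detergent-solubilized Sf9 membrane reagent, enriched on streptavidin microbeads, then FACS-sorted. Anti-HA (expression) and streptavidin (reagent binding) fluorescence set low and high (top ~1%) gates. Polyreactivity labels come from the gate of origin. Genes were colony-PCR amplified, MiSeq 2 × 250 sequenced and filtered by CDR length.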

Sequence	polyreactivity (PSR sort gate)
QFQLVESGGGLVQAGGSLRLSCAASGNTFTKYAMGWYRQAPGKDRELLAGITRGGSTNYADSVKGRFTISRDNAKNTVYFQMNSLKPEDTAVYYCNARPVYGSRFYSAVRMEYWGQGTQVTVSS	low polyreactivity
QFQLVESGGGLVQAGGSLRLSCAASGQILPYYAMGWYRQAPGKERELVAAISRTGGRTSYADSVNGRLTISRDNAKNTFYLQMNSLSPEDTAVYYCAAVGQSGGRRYDYWGQGTQVTVSS	high polyreactivity
QFQLVESGGGLVQAGGSLRLSCAASGRIFRVNAKGWYRPAPGKERELVAGITQGDGSTYYADSVKGRFTISRDNAKNTVYLQMNSLKPEDTAVYYCAASTGPDRQFDSWGQGTQVTVSS	low polyreactivity
QFQLVESGGGLVQAGGSLRLSCAASGRIFYLYAMGWYRQAPGKERELVAGITSGGRTNYADSVKGRFTISRDNGKNTVFLQMNSLKPEDSAVYYCAAGSLRYKYDYWGQGTQVTVSS	high polyreactivity
QFQLVESGGGLVQAGGSLRLSCAASGRTFSWSAMGWYRQAPGKERELVAAISASGGRTYYADSVKGRFTISRDNANNSVYLQMNSLKPEDTAVYYCAKVVKKIEFDYWGQGTEVTVSS	high polyreactivity
QFQLVESGGGLVQAGGSLRLSCAASGRTFWSNAMVWYRQAPGKERELVAAISGGARTNYADSVKGRFTISRDNAKNTVYLQMNSLKPEDTEVYFCAATPRYWQSRYDYWGKGTQVTVSS	high polyreactivity
QFQLVESGGGLVQAGGSLRLSCAASGSIFEPYAMGWYRQAPGKETELVATAITYSGGSTYYADSVKGRFTISRDNAKNTVYLQMNSLKPEDTAVYYCAADDWGDGVYKLDYWGQGTQVTVSS	low polyreactivity
QFQLVESGGGLVQAGGSLRLSCAASGSIFGVYVMGWSRQGAGKERELVAAITRGASTNYADSVKGRFTISRDNAKNTVYLQMNSLKPEDTAVYYCAAESGNRYEYWGQGTQVTVSS	low polyreactivity
QFQLVESGGGLVQAGGSLRLSCAASGSIFIPYAMGWYRQAPGKEREFVATITFGAASTYYADSVKGRFTISRDNAKNTVYLQMNSLKREDTAVYYCAAEWRRYEYADSWEYDYWGQGTQVTVSS	low polyreactivity
QFQLVESGGGLVQAGGSLRLSCAASGSIIWWNAMGWYRQAPGKERELVASIGDSTYYADSVKGRFTISRDNAKNTVYLQMNSLKPEDTAVYYCNAEVLNYLVFGYQLGYDYWGQGTQVTVSS	low polyreactivity
QFQLVESGGGLVQAGGSLRLSCAASGSILDGNTMGWYRQAPGKERELVDAISSLATSTYYADSVKGRFTISRDNAKNTVYLQINSLKPEDTAVYYCAALVRRKRTTSGDDYWGQGTQVTVSS	high polyreactivity
QFQLVESGGGLVQAGGSLRLSCAASGSIYRLNTMGWYRQAPGKERELVAAMSRRGGSTYYADSVKGRFTISRDNAKNTVYIQMNSLKPEDTAVYYCSADVTSFRHAPGYEYWGQGTQVTVSS	high polyreactivity
QFQLVESGGGLVQAGGSLRLSCAASGSTFIGYAMGWYRQAPGKERELVAAITGGGRTNYADSVKGRFTISRDNAKNTVYLQMNSLKPEDTAVYYCAARGVSRGYAKPYYSRGDYWGQGTQVTVSS	low polyreactivity
QFQLVESGGGLVQAGGSLRLSCAASGSTFIYNTMGWYRQAPGKERELVATIRRSGGITYYADSVKGRFTISRDNAKNTVYLQMNSLKPEDTAVYYCNAKPNRYSAKIVQYDSWGQGTQVTVSS	low polyreactivity
QFQLVESGGGLVQAGGSLRLSCAASGSTFKYYAKGWYRQAPGKERELVAAISARTGSTYYADSVKGRFTISRDNEKNTVYLQMNILKPEDTAVYYCNKLTWRGEVDYWGQGTQVTESS	high polyreactivity
QFQLVESGGGLVQAGGSLRLSCAASGSTFRGYTMGWYRQAPGKERELVAAIRSTTGRTYYADSVKGRFTISRENAKNTVYLQMNSLKPEDTAVYYCNKAYPREYYYWGQGTQVTVSS	high polyreactivity
QFQLVESGGGLVQAGGSLRLSCAASGSTFYTTDMGWYRQAPGKERELVASITSAGNTNYADSVKGRFTISRDNAKNSVYLQMNSLKPEDTAVYYYYYYQYDYWGQGTQVTVSS	low polyreactivity
QFQLVESGGGLVQAGGSLRLSCAASGSTSYRNAMGWYRQAPGKEREFVAAISWSGGSTYYADSVKGRFTISRDNAKNTVYLQMNSLKPEDTADYYSNADAYGTPEFTSYAVRYDYWGQGTQVTVSS	low polyreactivity
QFQLVESGGGLVQAGGSLRLSCAASGYIFVRYTMGWYRQAPGKERELVAAISWGGGSTYYADSVKGLFTISRDNAKNTVYLQMNSLKPEDTAVYYCNNRYIQLYDYWGQGTQVTVSS	low polyreactivity
QFQLVESGGGLVQAGGSLRLSCAASGYIFYGYVMGWYRQAPGKERELVAGITYSGGGGTHYADSVNGRFTISRDNAKNTVYLQMNSLKPEDTAVYYCAKADPQLNRTYYSYGMDYWGHGTQVTVSS	low polyreactivity
QFQLVESGGGLVQAGGSLRLSCAASGYTFRYYSMGWYRQATGKERELVAAISRSGGSTYYADSVKGRFTISRDYAKNTVYLQMYSLKPEDTAVYYCAADYSYRTRGNRYRLDYWGQGTQVTVSS	high polyreactivity
QFQLVESGGGLVQAGGSLRLSCAASGYTLEYNAMGWYRQAPGKDRELGARIRWSGSSTYYADSVKGRFTISRDNAKNTVYLQMNSLKPEDTAVYYCATRYRRWKYDYWGQGTQVTVSS	high polyreactivity

Sequence	polyreactivity (PSR sort gate)
QFQLVESGGGLVQAGGSLRLSCAASRYTFTLYAMGCYRQAPGKVRELVAAISWSSGSTYYADSVKGRFTISRDNEKNTVYLQMNSLKPEDTAVYYCNARRFGLTQYYYWGQGTQVTVSS	low polyreactivity
QFQLVESGGGLVQAGGSLRLSCAATGRIFYKYAMGWYRQAPRKETELVAAISSSGGRTYYADSVKGRFTISRDNAKNTVYLQMNSLKPEDSAVYYCGARIHYPSLPYDYWGQGTQVTVSS	low polyreactivity
QFQLVESGGGLVQAGGSLRLSCAPSGGTFGSNAMGWYRQAPGKERELVAAISTTGGTTYYADSVKGRFTISRDNAKNTVYLQMNSLKPEDTAVYYCAKDGYVYGDWYTYAYVYWGQGTQVTVSS	low polyreactivity
QFQLVESGGGLVQAGGSLRLSCPAYGSNLSRYAMGWYRQSPGKVRELVATITRRGGSTFYADSVKGRFTISRDNAKNTVYLQMNSLKPDDTADYYCAVGRLFWGQGTQVTVSS	low polyreactivity
QFQLVESGGGLVQAGGSLRLSSAASGFIFAHNAMGWYRQAPGKERELVDAITSSGGSTYYADSVKGRFSISRDNAKNTVYLQMNSLKPEDTAVYYCNAYTYARRGYDYWGQGTQVTVSS	high polyreactivity
QFQLVESGGGLVQAGGSLRLSSAASGRTFLSYTMVWYRQAPGKERQFVAAITTSGGSTNYADSVKGRFTISRDNAKNTVYLQMNSLKAEDTAVYYCADEWSVYFYDPRSDYWGQGNQVTVSS	high polyreactivity
QFQLVESGGGLVQAGGSLRLTCAASGSIFLWYAMGWYRQAPGKERELVAVITSSGGTTYYADSVKGRFTISRDNAKNTVYLQMNCLKPADTAVYYCAADFYRHPPGSLTKLYYYWGQGTQVTVSS	low polyreactivity
QFQLVESGGGLVQAGGTLRLSCPATGLIFAYNTMGWYRHAPGKERELVAGITSGGSTYYADSVKGRFTISRDNAKNTVYLHLNSLKPEDSAVYYCAAAYRNWSVSFGYWGQGTQVTVSS	high polyreactivity
QFQLVESGGGLVQAGVSLRLSCAASGRIFSHYAMGWYRQAPGKERELVAASSSGGITYYADSVKGRFTISLDNAKNTVYLQMNCQKPEDTAVYYCAAVRRRGTTYDYWGQGTQVTVSS	high polyreactivity
QFQLVESGGGLVQAVGSLRLSCAASGITFYTYAMGWYRHAPGKESDFVSAITRSGGSTYYADSVKGRFTFSRDNAKNTVYLQMIILKPEDTAVYYCAVDIYFWSYGWWGPYDYWGQGTQVTVSS	low polyreactivity
QFQLVESGGGLVQEGGSLRLSCASSGRTFVSNAMGWYRQAPGKERELVAAISRRSGSTYYADSVKGRFTISRDNAKNTVYLQMNSLKPEDTAVYYCGAVLTRYGYDYWGQGTQVTVSS	high polyreactivity
QFQLVESGGGSVQAGGSLRLSCAASGSTFDYNMGWYRQAPGKERELVATIRSDGRTNYADSVKGRFTISRDNAKNTVYLQMNSLKPEDTAVYYCAADVYAYVDDFGGYDYWGQGTQVTVSS	low polyreactivity
QFQLVESGGGVVQAGGRLRLSCAASGSNFPRYAMGWYIQAPGKERELVAAISSSGGDTYYADSVKGLYTISRDNAKNTVYLQMNSLKPEDTAVYYCAALGAFPSLEFDYCGQGTQVTVSS	low polyreactivity
QFQLVESGRGLVQAGGSLRLSCAASGRTFSAYAIGWNSQAPVKQRELVAAITRGGSTNYADSVKGRFTISRDNAMNTLYLQMNRLKPEDTAVYYCAARRSSRKDFGYWGQGTQVTVSS	high polyreactivity
QFQLVESGRGLVQAGVSLRLSCASSGFTFILYAIGCYRQATGKERELVAGISNGGSTYYADSVKGRFTISRDNAKNTVYFQMNSLKPEDTAVDYCNRDLTFYLYVSGNYFGQGTQVTVSS	low polyreactivity
QFQLVESGRGLVQAVGSHRLRCAASGSILLKYAMGWYRQATGKEMELVAAITYRGASTHYADSVKGRFTISRDNAKNTVYLQMNSLKPEDTAVYYCAARGWVYYASEMDYWGQGTQVTVSS	low polyreactivity
QFQLVESRGGLVQAGGSLRLNCASSGSIFYSYAIGWYRQAPGKERELVAAITRGGSTYYADSVKGRFTISRDNAKNTVYLQMNSLKREDTAVYYCAAEFYSYKYPDYDYWGQGTQVTVSS	low polyreactivity
QFQLVESVGGLVQAGGSLRISCAASGIIFYSYALGWYREAPGKERELVATISFSGDNTYYADSVKGRFTISRDNAKNTVYLQMNSLKPEDTAVYYCAKDLGYRGRYNYWGQGTQVTVSS	low polyreactivity
QFQLVESVGGLVQAGGSLRLSCAASGFTFTAYAMGWYRQAPGTERELVAAISSGGSTYYADSVKGRFTISRDNAKNTVYLQMNSLKPEDTAVYYCAAVGVYTVKREYWGQGTQVTVSS	low polyreactivity
QFQLVESVGGLVQAGGSLRLSCAASGITFPANAMGWYRQAPGKERELVAAISSSGGSTYYADSVKGRFTISRDNAKNTVYLQMNSLKPEDTAVYYCAAYYGPSRSLYYYWGQGTQVTVSS	high polyreactivity
QFQLVESVGGLVQAGGSLRLSCAASGRTFGNYAMGWYRQAPGKERELVAAISRSGGSTSYADSVKGRFTISRDNAKNTVYLQMNSLKPVDTAVYYCNAYFRGPRDYQYDYWGQGTQVTVSS	high polyreactivity
